The text below walks through data of IntAct's records for PubMed 25910212.

The labels stand for the following.
B1: Cyclin-dependent kinase 4 (Homo sapiens), P11802 (parent)
chain: MATSRYEPVAEIGVGAYGTVYKARDPHSGHFVALKSVRVPNGGGGGGGLPISTVREVALLRRLEAFEHPNVVRLMDVCATSRTDREIKVTLVFEHVDQDLRTYLDKAPPPGLPAETIKDLMRQFLRGLDFLHANCIVHRDLKPENILVTSGGTVKLADFGLARIYSYQMALTPVVVTLWYRAPEVLLQSTYATPVDMWSVGCIFAEMFRRKPLFCGNSEADQLGKIFDLIGLPPEDDWPRDVSLPRGAFPPRGPRPVQSVVPEMEESGAQLLLEMLTFNPHKRISAFRALQHSYLHKDEGNPE

In one test the parent is B1. As to conditions: with ccnd1_human CCND1, P24385.
Chain of ccnd1_human CCND1, P24385 (P24385 whole entry): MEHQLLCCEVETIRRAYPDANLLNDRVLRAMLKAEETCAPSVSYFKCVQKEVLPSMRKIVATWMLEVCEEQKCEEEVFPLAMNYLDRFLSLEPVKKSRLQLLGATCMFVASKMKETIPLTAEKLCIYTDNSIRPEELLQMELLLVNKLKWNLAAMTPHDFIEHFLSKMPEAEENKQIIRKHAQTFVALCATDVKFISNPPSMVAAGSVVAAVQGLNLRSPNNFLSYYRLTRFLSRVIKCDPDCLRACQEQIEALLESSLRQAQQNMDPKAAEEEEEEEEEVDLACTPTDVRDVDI
On to MATSRYEPVAEIGVGAYGTVYKAHDPHSGHFVALKSVRVPNGGGGGGGLPISTVREVALLRRLEAFEHPNVVRLMDVCATSRTDREIKVTLVFEHVDQDLRTYLDKAPPPGLPAETIKDLMRQFLRGLDFLHANCIVHRDLKPENILVTSGGTVKLADFGLARIYSYQMALTPVVVTLWYRAPEVLLQSTYATPVDMWSVGCIFAEMFRRKPLFCGNSEADQLGKIFDLIGLPPEDDWPRDVSLPRGAFPPRGPRPVQSVVPEMEESGAQLLLEMLTFNPHKRISAFRALQHSYLHKDEGNPE [R24H], for which the “effect of a mutation on the interaction” value is “with no effect”.

As to MATSRYEPVAEIGVGAYGTVYKARDPHSGHFVALKSVRVPNGGGGGGGLPINTVREVALLRRLEAFEHPNVVRLMDVCATSRTDREIKVTLVFEHVDQDLRTYLDKAPPPGLPAETIKDLMRQFLRGLDFLHANCIVHRDLKPENILVTSGGTVKLADFGLARIYSYQMALTPVVVTLWYRAPEVLLQSTYATPVDMWSVGCIFAEMFRRKPLFCGNSEADQLGKIFDLIGLPPEDDWPRDVSLPRGAFPPRGPRPVQSVVPEMEESGAQLLLEMLTFNPHKRISAFRALQHSYLHKDEGNPE [S52N], the “effect of a mutation on the interaction” value is “with no effect”.

In the case of MATSRYEPVAEIGVGAYGTVYKARDPHSGHFVALKSVRVPSGGGGGGGLPISTVREVALLRRLEAFEHPNVVRLMDVCATSRTDREIKVTLVFEHVDQDLRTYLDKAPPPGLPAETIKDLMRQFLRGLDFLHANCIVHRDLKPENILVTSGGTVKLADFGLARIYSYQMALTPVVVTLWYRAPEVLLQSTYATPVDMWSVGCIFAEMFRRKPLFCGNSEADQLGKIFDLIGLPPEDDWPRDVSLPRGAFPPRGPRPVQSVVPEMEESGAQLLLEMLTFNPHKRISAFRALQHSYLHKDEGNPE [N41S], the “effect of a mutation on the interaction” value was “with no effect”.

In a further test the parent is B1. As to conditions: with ccnd3_human CCND3, P30281.
Chain of ccnd3_human CCND3, P30281 (P30281 whole entry): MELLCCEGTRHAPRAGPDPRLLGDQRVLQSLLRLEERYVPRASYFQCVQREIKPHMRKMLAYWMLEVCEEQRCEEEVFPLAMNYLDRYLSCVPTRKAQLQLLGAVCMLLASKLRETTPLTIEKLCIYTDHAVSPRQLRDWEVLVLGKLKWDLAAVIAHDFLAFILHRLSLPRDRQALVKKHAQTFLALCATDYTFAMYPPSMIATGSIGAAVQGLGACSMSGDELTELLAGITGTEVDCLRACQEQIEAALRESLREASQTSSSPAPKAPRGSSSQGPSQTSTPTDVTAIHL
As to MATSRYEPVAEIGVGAYGTVYKAHDPHSGHFVALKSVRVPNGGGGGGGLPISTVREVALLRRLEAFEHPNVVRLMDVCATSRTDREIKVTLVFEHVDQDLRTYLDKAPPPGLPAETIKDLMRQFLRGLDFLHANCIVHRDLKPENILVTSGGTVKLADFGLARIYSYQMALTPVVVTLWYRAPEVLLQSTYATPVDMWSVGCIFAEMFRRKPLFCGNSEADQLGKIFDLIGLPPEDDWPRDVSLPRGAFPPRGPRPVQSVVPEMEESGAQLLLEMLTFNPHKRISAFRALQHSYLHKDEGNPE [R24H], the “effect of a mutation on the interaction” value is reported as “with no effect”.

For MATSRYEPVAEIGVGAYGTVYKARDPHSGHFVALKSVRVPNGGGGGGGLPINTVREVALLRRLEAFEHPNVVRLMDVCATSRTDREIKVTLVFEHVDQDLRTYLDKAPPPGLPAETIKDLMRQFLRGLDFLHANCIVHRDLKPENILVTSGGTVKLADFGLARIYSYQMALTPVVVTLWYRAPEVLLQSTYATPVDMWSVGCIFAEMFRRKPLFCGNSEADQLGKIFDLIGLPPEDDWPRDVSLPRGAFPPRGPRPVQSVVPEMEESGAQLLLEMLTFNPHKRISAFRALQHSYLHKDEGNPE [S52N], the “effect of a mutation on the interaction” value was “with no effect”.

As for MATSRYEPVAEIGVGAYGTVYKARDPHSGHFVALKSVRVPSGGGGGGGLPISTVREVALLRRLEAFEHPNVVRLMDVCATSRTDREIKVTLVFEHVDQDLRTYLDKAPPPGLPAETIKDLMRQFLRGLDFLHANCIVHRDLKPENILVTSGGTVKLADFGLARIYSYQMALTPVVVTLWYRAPEVLLQSTYATPVDMWSVGCIFAEMFRRKPLFCGNSEADQLGKIFDLIGLPPEDDWPRDVSLPRGAFPPRGPRPVQSVVPEMEESGAQLLLEMLTFNPHKRISAFRALQHSYLHKDEGNPE [N41S], the “effect of a mutation on the interaction” value was “with no effect”.

Another test covers variants of B1. As to conditions: with ccnd2_human CCND2, P30279.
Chain of ccnd2_human CCND2, P30279 (P30279 whole entry): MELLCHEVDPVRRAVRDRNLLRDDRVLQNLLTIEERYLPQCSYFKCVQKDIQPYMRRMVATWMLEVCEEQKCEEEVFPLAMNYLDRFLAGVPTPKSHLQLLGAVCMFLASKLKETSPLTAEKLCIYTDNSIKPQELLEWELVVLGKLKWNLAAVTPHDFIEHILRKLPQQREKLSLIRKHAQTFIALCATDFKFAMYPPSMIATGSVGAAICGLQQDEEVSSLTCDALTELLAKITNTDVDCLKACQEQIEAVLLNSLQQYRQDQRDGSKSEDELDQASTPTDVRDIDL
In the case of MATSRYEPVAEIGVGAYGTVYKAHDPHSGHFVALKSVRVPNGGGGGGGLPISTVREVALLRRLEAFEHPNVVRLMDVCATSRTDREIKVTLVFEHVDQDLRTYLDKAPPPGLPAETIKDLMRQFLRGLDFLHANCIVHRDLKPENILVTSGGTVKLADFGLARIYSYQMALTPVVVTLWYRAPEVLLQSTYATPVDMWSVGCIFAEMFRRKPLFCGNSEADQLGKIFDLIGLPPEDDWPRDVSLPRGAFPPRGPRPVQSVVPEMEESGAQLLLEMLTFNPHKRISAFRALQHSYLHKDEGNPE [R24H], the “effect of a mutation on the interaction” value is “with no effect”.

For the variant MATSRYEPVAEIGVGAYGTVYKARDPHSGHFVALKSVRVPNGGGGGGGLPINTVREVALLRRLEAFEHPNVVRLMDVCATSRTDREIKVTLVFEHVDQDLRTYLDKAPPPGLPAETIKDLMRQFLRGLDFLHANCIVHRDLKPENILVTSGGTVKLADFGLARIYSYQMALTPVVVTLWYRAPEVLLQSTYATPVDMWSVGCIFAEMFRRKPLFCGNSEADQLGKIFDLIGLPPEDDWPRDVSLPRGAFPPRGPRPVQSVVPEMEESGAQLLLEMLTFNPHKRISAFRALQHSYLHKDEGNPE [S52N], the “effect of a mutation on the interaction” value is “with no effect”.

As for MATSRYEPVAEIGVGAYGTVYKARDPHSGHFVALKSVRVPSGGGGGGGLPISTVREVALLRRLEAFEHPNVVRLMDVCATSRTDREIKVTLVFEHVDQDLRTYLDKAPPPGLPAETIKDLMRQFLRGLDFLHANCIVHRDLKPENILVTSGGTVKLADFGLARIYSYQMALTPVVVTLWYRAPEVLLQSTYATPVDMWSVGCIFAEMFRRKPLFCGNSEADQLGKIFDLIGLPPEDDWPRDVSLPRGAFPPRGPRPVQSVVPEMEESGAQLLLEMLTFNPHKRISAFRALQHSYLHKDEGNPE [N41S], the “effect of a mutation on the interaction” value is “with no effect”.

In another test the parent is B1. Conditions: with cdn2b_human CDKN2B.
MATSRYEPVAEIGVGAYGTVYKAHDPHSGHFVALKSVRVPNGGGGGGGLPISTVREVALLRRLEAFEHPNVVRLMDVCATSRTDREIKVTLVFEHVDQDLRTYLDKAPPPGLPAETIKDLMRQFLRGLDFLHANCIVHRDLKPENILVTSGGTVKLADFGLARIYSYQMALTPVVVTLWYRAPEVLLQSTYATPVDMWSVGCIFAEMFRRKPLFCGNSEADQLGKIFDLIGLPPEDDWPRDVSLPRGAFPPRGPRPVQSVVPEMEESGAQLLLEMLTFNPHKRISAFRALQHSYLHKDEGNPE [R24H]: the “effect of a mutation on the interaction” value is “with no effect”.

On to MATSRYEPVAEIGVGAYGTVYKARDPHSGHFVALKSVRVPNGGGGGGGLPINTVREVALLRRLEAFEHPNVVRLMDVCATSRTDREIKVTLVFEHVDQDLRTYLDKAPPPGLPAETIKDLMRQFLRGLDFLHANCIVHRDLKPENILVTSGGTVKLADFGLARIYSYQMALTPVVVTLWYRAPEVLLQSTYATPVDMWSVGCIFAEMFRRKPLFCGNSEADQLGKIFDLIGLPPEDDWPRDVSLPRGAFPPRGPRPVQSVVPEMEESGAQLLLEMLTFNPHKRISAFRALQHSYLHKDEGNPE [S52N], for which the “effect of a mutation on the interaction” value was “with no effect”.

As for MATSRYEPVAEIGVGAYGTVYKARDPHSGHFVALKSVRVPSGGGGGGGLPISTVREVALLRRLEAFEHPNVVRLMDVCATSRTDREIKVTLVFEHVDQDLRTYLDKAPPPGLPAETIKDLMRQFLRGLDFLHANCIVHRDLKPENILVTSGGTVKLADFGLARIYSYQMALTPVVVTLWYRAPEVLLQSTYATPVDMWSVGCIFAEMFRRKPLFCGNSEADQLGKIFDLIGLPPEDDWPRDVSLPRGAFPPRGPRPVQSVVPEMEESGAQLLLEMLTFNPHKRISAFRALQHSYLHKDEGNPE [N41S], the “effect of a mutation on the interaction” value is recorded as “with no effect”.

The next test covers variants of B1. Conditions: with cdn2c_human CDKN2C.
For the variant MATSRYEPVAEIGVGAYGTVYKAHDPHSGHFVALKSVRVPNGGGGGGGLPISTVREVALLRRLEAFEHPNVVRLMDVCATSRTDREIKVTLVFEHVDQDLRTYLDKAPPPGLPAETIKDLMRQFLRGLDFLHANCIVHRDLKPENILVTSGGTVKLADFGLARIYSYQMALTPVVVTLWYRAPEVLLQSTYATPVDMWSVGCIFAEMFRRKPLFCGNSEADQLGKIFDLIGLPPEDDWPRDVSLPRGAFPPRGPRPVQSVVPEMEESGAQLLLEMLTFNPHKRISAFRALQHSYLHKDEGNPE [R24H], the “effect of a mutation on the interaction” value was “disrupting interaction strength”.

Take MATSRYEPVAEIGVGAYGTVYKARDPHSGHFVALKSVRVPNGGGGGGGLPINTVREVALLRRLEAFEHPNVVRLMDVCATSRTDREIKVTLVFEHVDQDLRTYLDKAPPPGLPAETIKDLMRQFLRGLDFLHANCIVHRDLKPENILVTSGGTVKLADFGLARIYSYQMALTPVVVTLWYRAPEVLLQSTYATPVDMWSVGCIFAEMFRRKPLFCGNSEADQLGKIFDLIGLPPEDDWPRDVSLPRGAFPPRGPRPVQSVVPEMEESGAQLLLEMLTFNPHKRISAFRALQHSYLHKDEGNPE [S52N]: the “effect of a mutation on the interaction” value is listed as “with no effect”.

For MATSRYEPVAEIGVGAYGTVYKARDPHSGHFVALKSVRVPSGGGGGGGLPISTVREVALLRRLEAFEHPNVVRLMDVCATSRTDREIKVTLVFEHVDQDLRTYLDKAPPPGLPAETIKDLMRQFLRGLDFLHANCIVHRDLKPENILVTSGGTVKLADFGLARIYSYQMALTPVVVTLWYRAPEVLLQSTYATPVDMWSVGCIFAEMFRRKPLFCGNSEADQLGKIFDLIGLPPEDDWPRDVSLPRGAFPPRGPRPVQSVVPEMEESGAQLLLEMLTFNPHKRISAFRALQHSYLHKDEGNPE [N41S], the “effect of a mutation on the interaction” value was “with no effect”.

In a further test the parent is B1. As to conditions: with cdn2b_human CDKN2B. The source holds these as a separate data set.
In the case of MATSRYEPVAEIGVGAYGTVYKAHDPHSGHFVALKSVRVPNGGGGGGGLPISTVREVALLRRLEAFEHPNVVRLMDVCATSRTDREIKVTLVFEHVDQDLRTYLDKAPPPGLPAETIKDLMRQFLRGLDFLHANCIVHRDLKPENILVTSGGTVKLADFGLARIYSYQMALTPVVVTLWYRAPEVLLQSTYATPVDMWSVGCIFAEMFRRKPLFCGNSEADQLGKIFDLIGLPPEDDWPRDVSLPRGAFPPRGPRPVQSVVPEMEESGAQLLLEMLTFNPHKRISAFRALQHSYLHKDEGNPE [R24H], the “effect of a mutation on the interaction” value was “disrupting interaction strength”.
